In PMC5656002 (ACS infectious diseases, 2016):
Positions count from the first letter of the chain named. Numbers in names are those of the source. Where two headings read alike, the source gives them in different places.

T1: SHV-1 β-lactamase (UniProt P0AD64 22-286)
T1 sequence (looked up): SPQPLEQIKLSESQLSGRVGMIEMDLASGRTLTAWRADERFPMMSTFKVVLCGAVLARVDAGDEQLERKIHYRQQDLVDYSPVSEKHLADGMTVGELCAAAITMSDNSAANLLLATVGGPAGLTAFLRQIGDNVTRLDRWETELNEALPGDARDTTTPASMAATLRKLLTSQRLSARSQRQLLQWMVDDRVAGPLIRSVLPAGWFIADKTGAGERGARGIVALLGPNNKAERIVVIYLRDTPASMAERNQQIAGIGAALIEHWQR

T2: SME-1 β-lactamase (UniProt P52682 28-294)
T2 sequence: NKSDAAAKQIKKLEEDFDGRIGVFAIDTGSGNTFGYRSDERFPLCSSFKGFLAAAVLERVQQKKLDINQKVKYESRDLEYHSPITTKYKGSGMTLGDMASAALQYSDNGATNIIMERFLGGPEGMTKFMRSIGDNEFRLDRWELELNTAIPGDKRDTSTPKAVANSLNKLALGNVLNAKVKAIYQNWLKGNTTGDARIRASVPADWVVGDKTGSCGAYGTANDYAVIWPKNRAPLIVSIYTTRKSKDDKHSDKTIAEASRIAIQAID

B1: β-lactamase inhibitory protein (BLIP), wild type (natural protein, Streptomyces clavuligerus, UniProt P35804 37-201, looked up)
chain: AGVMTGAKFTQIQFGMTRQQVLDIAGAENCETGGSFGDSIHCRGHAAGDYYAYATFGFTSAAADAKVDSKSQEKLLAPSAPTLTLAKFNQVTVGMTRAQVLATVGQGSCTTWSEYYPAYPSTAGVTLSLSCFDVDGYSSTGFYRGSAHLWFTDGVLQGKRQWDLV
B2: BLIP E73K (natural protein)
chain: B1 chain with E73K
B3: BLIP E73K:K74T (natural protein)
chain: B1 chain with E73K, K74T
B4: BLIP E73K:R160G (natural protein)
chain: B1 chain with E73K, R160G
B5: BLIP K74T:R160G (natural protein)
chain: B1 chain with K74T, R160G
B6: BLIP K74T:W112D (natural protein)
chain: B1 chain with K74T, W112D
B7: BLIP W112D (natural protein)
chain: B1 chain with W112D
B8: BLIP R160G (natural protein)
chain: B1 chain with R160G
B9: BLIP K74T (natural protein)
chain: B1 chain with K74T

Assays:
[1] = target: SME-1 beta-lactamase (Serratia marcescens) (UniProt P52682); conditions: cited from earlier work
[2] = target: KPC-2 beta-lactamase (Klebsiella pneumoniae) (UniProt Q9F663); conditions: cited from earlier work
[3] = target: CTX-M-14 beta-lactamase (Escherichia coli); conditions: cited from earlier work
[4] = target: T3, KPC-2 β-lactamase (purified) (UniProt Q9F663 30-293); experiment: cell-based or functional assay
[5] = target: T3, KPC-2 β-lactamase (purified); experiment: enzyme inhibition assay
[6] = target: T3, KPC-2 β-lactamase (purified); experiment: enzyme inhibition assay; remark: listed apart in the source
[7] = target: T4, TEM-1 β-lactamase (purified) (UniProt P62593 24-286); experiment: enzyme inhibition assay
[8] = target: T4, TEM-1 β-lactamase (purified); experiment: enzyme inhibition assay; remark: listed apart in the source
[9] = target: T3, KPC-2 β-lactamase (purified); experiment: cell-based or functional assay; remark: listed apart in the source
[10] = target: T3, KPC-2 β-lactamase (purified); experiment: activity-based association and dissociation kinetics
[11] = target: T3, KPC-2 β-lactamase (purified); experiment: enzyme inhibition assay; remark: listed apart in the source
SHV-1 β-lactamase = target: T1, SHV-1 β-lactamase; experiment: enzyme inhibition assay
CTX-M-14 β-lactamase = CTX-M-14 β-lactamase (UniProt Q9L5C7 1-291); experiment: enzyme inhibition assay
SME-1 β-lactamase = target: T2, SME-1 β-lactamase; experiment: enzyme inhibition assay
[12] = target: T4, TEM-1 β-lactamase (purified); experiment: enzyme inhibition assay; remark: listed apart in the source

| Molecule | ampicillin MIC of E. coli TP142 (chromosomal blaKPC-2) carrying the BLIP plasmid [4] [µg/mL] | Ki [5] [nM] | Ki [6] [nM] | Ki [7] [nM] | Ki [8] [nM] | ampicillin MIC of E. coli TP142 (chromosomal blaKPC-2) carrying the BLIP plasmid [9] [µg/mL] | Kd [10] [nM] | koff [10] [s⁻¹] | kon [10] [M⁻¹ s⁻¹] | Ki [11] [nM] | also measured |
| --- | --- | --- | --- | --- | --- | --- | --- | --- | --- | --- | --- |
| BLIP (from UniProt P35804) |  |  |  |  |  |  |  |  |  |  | Ki [1]: 2.4 nM; Ki [2]: 0.082 nM; Ki [3]: 800 nM |
| B1 | 1 | 0.2 ± 0.2 | 1.2 ± 0.4 |  |  |  |  |  |  |  |  |
| B2 | 1.5 | 8.9 ± 6.3 | 13.7 ± 6.6 | 2530 ± 578 | 835 ± 172 |  |  |  |  |  |  |
| B3 |  |  |  |  |  | ≤ 3 | 1.3 | 0.0004 | 300000 | 1.6 ± 0.8 |  |
| B4 |  |  |  |  |  | ≤ 3 | 60 | 0.03 | 500000 | 128 ± 30 |  |
| B5 |  |  |  |  |  | ≤ 3 |  |  |  | 150 ± 57 |  |
| B6 |  |  |  |  |  | ≤ 3 | 0.13 | 3e-05 | 200000 | 0.4 ± 0.2 | Ki (SHV-1 β-lactamase): > 10000 nM; Ki (CTX-M-14 β-lactamase): > 10000 nM; Ki (SME-1 β-lactamase): 450 nM; Ki [12]: > 10000 nM |
| B7 | 1 | 587 ± 63 | 1080 ± 551 | 1270 ± 212 | 1190 ± 701 |  |  |  |  |  |  |
| B8 | 0.75 | 0.4 ± 0.3 | 0.9 ± 0.4 | 236 ± 85 | 236 ± 115 |  |  |  |  |  |  |
| B9 | 1.5 | 1.5 ± 1 | 1.8 ± 2.8 | 151 ± 97 | 110 ± 23 |  |  |  |  |  |  |
